The record followed here is US20130059806A1 (REGENTS OF THE UNIVERSITY OF MICHIGAN, published 2013).

Sequences and labels used below:
B2: MTA2 (other, mouse, UniProt Q9R190 1-668, looked up)
chain: MAANMYRVGDYVYFENSSSNPYLVRRIEELNKTANGNVEAKVVCLFRRRDISSSLNSLADSNAREFEEESKQPGVSEQQRHQLKHRELFLSRQFESLPATHIRGKCSVTLLNETDILNQYLDKEDCFFYSLVFDPVQKTLLADQGEIRVGCKFQAEIPDRLAEGESDNRNQQKMEMKVWDPDNPLTDRQIDQFLVVARAVGTFARALDCSSSIRQPSLHMSAAAASRDITLFHAMDTLQRNGYDLAKAMSTLVPQGGPVLCRDEMEEWSASEAMLFEEALEKYGKDFNDIRQDFLPWKSLASIVQFYYMWKTTDRYIQQKRLKAAEADSKLKQVYIPTYTKPNPNQIISVGSKPGMNGAGFQKGLTCESCHTTQSAQWYAWGPPNMQCRLCASCWIYWKKYGGLKTPTQLEGAARGTTEPHSRGHLSRPEAQSLSPYTTSANRAKLLAKNRQTFLLQTTKLTRLARRMCRDLLQPRRAARRPYAPINANAIKAECSIRLPKAAKTPLKIHPLVRLPLATIVKDLVAQAPLKPKTPRGTKTPINRNQLTQNRGLGGIMVKRSYETMAGAGVPFSANGRPLASGIRSSSQPAAKRQKLNPADAPNPVVFVATKDTRALRKALTHLEMRRAARRPNLPLKVKPTLMTVRPPVPLPASSHPASTNEPIVLED
notes: also called MTA1/2 (with MTA1)
B3: transcriptional intermediary factor (TIF)-1beta (other, mouse, UniProt Q62318 2-834, looked up)
chain: AASAAATAAASAATAASAASGSPGSGEGSAGGEKRPAASSAAAASAAASSPAGGGGEAQELLEHCGVCRERLRPERDPRLLPCLHSACSACLGPATPAAANNSGDGGSAGDGAMVDCPVCKQQCYSKDIVENYFMRDSGSKASSDSQDANQCCTSCEDNAPATSYCVECSEPLCETCVEAHQRVKYTKDHTVRSTGPAKTRDGERTVYCNVHKHEPLVLFCESCDTLTCRDCQLNAHKDHQYQFLEDAVRNQRKLLASLVKRLGDKHATLQKNTKEVRSSIRQVSDVQKRVQVDVKMAILQIMKELNKRGRVLVNDAQKVTEGQQERLERQHWTMTKIQKHQEHILRFASWALESDNNTALLLSKKLIYFQLHRALKMIVDPVEPHGEMKFQWDLNAWTKSAEAFGKIVAERPGTNSTGPGPMAPPRAPGPLSKQGSGSSQPMEVQEGYGFGSDDPYSSAEPHVSGMKRSRSGEGEVSGLLRKVPRVSLERLDLDLTSDSQPPVFKVFPGSTTEDYNLIVIERGAAAAAAGQAGTVPPGAPGAPPLPGMAIVKEEETEAAIGAPPAAPEGPETKPVLMPLTEGPGAEGPRLASPSGSTSSGLEVVAPEVTSAPVSGPGILDDSATICRVCQKPGDLVMCNQCEFCFHLDCHLPALQDVPGEEWSCSLCHVLPDLKEEDGSLSLDGADSTGVVAKLSPANQRKCERVLLALFCHEPCRPLHQLATDSTFSMEQPGGTLDLTLIRARLQEKLSPPYSSPQEFAQDVGRMFKQFNKLTEDKADVQSIIGLQRFFETRMNDAFGDTKFSAVLVEPPPLNLPSAGLSSQELSGPGDGP
notes: also called TIF1β; TIF113
B4: MTA1 (other, mouse, UniProt Q8K4B0 1-715, looked up)
chain: MAANMYRVGDYVYFENSSSNPYLIRRIEELNKTANGNVEAKVVCFYRRRDISSSLIALADKHATLSVCYRAGPGADTGEEGEVEEEVENPEMVDLPEKLKHQLRHRELFLSRQLESLPATHIRGKCSVTLLNETESLKSYLEREDFFFYSLVYDPQQKTLLADKGEIRVGNRYQADITDLLKEGEEDGRDQSKLETKVWEAHNPLVDKQIDQFLVVARSVGTFARALDCSSSVRQPSLHMSAAAASRDITLFHAMDTLHKNIYDISKAISALVPQGGPVLCRDEMEEWSASEANLFEEALEKYGKDFTDIQQDFLPWKSLTSIIEYYYMWKTTDRYVQQKRLKAAEAESKLKQVYIPNYNKPNPNQISASSVKATVVNGTGTPGQSPGAGRACESCYTTQSYQWYSWGPPNMQCRLCASCWTYWKKYGGLKMPTRLDGERPGPNRNNMSPHGIPARSSGSPKFAMKTRQAFYLHTTKLTRIARRLCREILRPWHAARHPYMPINSAAIKAECTARLPEASQSPLVLKQVVRKPLEAVLRYLETHPRPPKPDPVKSSSSVLSSLTPAKSAPVINNGSPTILGKRSYEQHNGVDGNMKKRLLMPSRGLANHGQTRHMGPSRNLLLNGKSYPTKVRLIRGGSLPPVKRRRMNWIDAPDDVFYMATEETRKIRKLLSSSETKRAARRPYKPIALRQSQALPLRPPPPAPVNDEPIVIED
notes: also called MTA1/2 (with MTA2)

The target in experiment [1] is T1, TR4 (mouse, UniProt P49117 1-596).
T1 construct: Endogenous protein, immunoprecipitated or detected with a rabbit polyclonal antibody; also called NR2C2
T1 sequence (looked up): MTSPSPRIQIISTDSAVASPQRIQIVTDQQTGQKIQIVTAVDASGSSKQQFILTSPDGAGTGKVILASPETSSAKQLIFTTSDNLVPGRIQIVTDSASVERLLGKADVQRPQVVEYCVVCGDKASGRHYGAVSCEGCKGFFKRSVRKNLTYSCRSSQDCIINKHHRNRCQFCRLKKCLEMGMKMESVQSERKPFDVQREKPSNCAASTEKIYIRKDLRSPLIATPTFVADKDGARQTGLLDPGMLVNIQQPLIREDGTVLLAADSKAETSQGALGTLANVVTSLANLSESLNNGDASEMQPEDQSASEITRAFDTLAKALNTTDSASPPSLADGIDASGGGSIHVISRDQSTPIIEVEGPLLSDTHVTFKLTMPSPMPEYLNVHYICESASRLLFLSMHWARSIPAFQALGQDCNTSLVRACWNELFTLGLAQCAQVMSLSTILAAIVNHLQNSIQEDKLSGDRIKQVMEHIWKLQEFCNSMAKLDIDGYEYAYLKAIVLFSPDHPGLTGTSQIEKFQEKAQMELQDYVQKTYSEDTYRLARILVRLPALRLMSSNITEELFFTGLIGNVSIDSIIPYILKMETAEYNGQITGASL
As to the kind of experiment: co-IP from untransfected MEL nuclear extract, immunoblot (summary).
Experimental: Nuclear extracts were prepared from untransfected, induced MEL cells and incubated with protein G beads coupled with antibodies against proteins shown at the top of the images, or with a control IgG; 150 μg of nuclear extract protein was used for each lane. Immunoprecipitates with the antibody-coupled beads, and 10% of the input (15 μg protein) were subjected to SDS-PAGE followed by immunoblotting with antibodies against proteins shown to the left of the images. For immunoprecipitation, antibodies against TR2, TR4, DNMT1, HDAC3, and TIF113 were used in the left panels.
Antibodies were coupled to Dynabeads protein G (Invitrogen) by incubating for 2 hr at 4° C. with rotation according to the manufacturer's instructions. The beads were then incubated with nuclear extracts (150 μg protein) prepared from untransfected MEL cells for 2 hr at 4° C. After washing the beads with ice-cold phosphate buffered saline (PBS) three times, immunoprecipitated proteins were eluted by boiling in 1× Laemmli sample buffer and then subjected to immunoblotting.

In experiment [2] the target is B3. As to the kind of experiment: co-IP from untransfected MEL nuclear extract, immunoblot. Background: Immunoblotting shows a protein as a band on a membrane.
In experiment [3] the target is T2, Mi2β (mouse, UniProt Q6PDQ2 1-1915).
T2 construct: also called Mi2beta; Mi213
T2 sequence (Q6PDQ2 whole entry): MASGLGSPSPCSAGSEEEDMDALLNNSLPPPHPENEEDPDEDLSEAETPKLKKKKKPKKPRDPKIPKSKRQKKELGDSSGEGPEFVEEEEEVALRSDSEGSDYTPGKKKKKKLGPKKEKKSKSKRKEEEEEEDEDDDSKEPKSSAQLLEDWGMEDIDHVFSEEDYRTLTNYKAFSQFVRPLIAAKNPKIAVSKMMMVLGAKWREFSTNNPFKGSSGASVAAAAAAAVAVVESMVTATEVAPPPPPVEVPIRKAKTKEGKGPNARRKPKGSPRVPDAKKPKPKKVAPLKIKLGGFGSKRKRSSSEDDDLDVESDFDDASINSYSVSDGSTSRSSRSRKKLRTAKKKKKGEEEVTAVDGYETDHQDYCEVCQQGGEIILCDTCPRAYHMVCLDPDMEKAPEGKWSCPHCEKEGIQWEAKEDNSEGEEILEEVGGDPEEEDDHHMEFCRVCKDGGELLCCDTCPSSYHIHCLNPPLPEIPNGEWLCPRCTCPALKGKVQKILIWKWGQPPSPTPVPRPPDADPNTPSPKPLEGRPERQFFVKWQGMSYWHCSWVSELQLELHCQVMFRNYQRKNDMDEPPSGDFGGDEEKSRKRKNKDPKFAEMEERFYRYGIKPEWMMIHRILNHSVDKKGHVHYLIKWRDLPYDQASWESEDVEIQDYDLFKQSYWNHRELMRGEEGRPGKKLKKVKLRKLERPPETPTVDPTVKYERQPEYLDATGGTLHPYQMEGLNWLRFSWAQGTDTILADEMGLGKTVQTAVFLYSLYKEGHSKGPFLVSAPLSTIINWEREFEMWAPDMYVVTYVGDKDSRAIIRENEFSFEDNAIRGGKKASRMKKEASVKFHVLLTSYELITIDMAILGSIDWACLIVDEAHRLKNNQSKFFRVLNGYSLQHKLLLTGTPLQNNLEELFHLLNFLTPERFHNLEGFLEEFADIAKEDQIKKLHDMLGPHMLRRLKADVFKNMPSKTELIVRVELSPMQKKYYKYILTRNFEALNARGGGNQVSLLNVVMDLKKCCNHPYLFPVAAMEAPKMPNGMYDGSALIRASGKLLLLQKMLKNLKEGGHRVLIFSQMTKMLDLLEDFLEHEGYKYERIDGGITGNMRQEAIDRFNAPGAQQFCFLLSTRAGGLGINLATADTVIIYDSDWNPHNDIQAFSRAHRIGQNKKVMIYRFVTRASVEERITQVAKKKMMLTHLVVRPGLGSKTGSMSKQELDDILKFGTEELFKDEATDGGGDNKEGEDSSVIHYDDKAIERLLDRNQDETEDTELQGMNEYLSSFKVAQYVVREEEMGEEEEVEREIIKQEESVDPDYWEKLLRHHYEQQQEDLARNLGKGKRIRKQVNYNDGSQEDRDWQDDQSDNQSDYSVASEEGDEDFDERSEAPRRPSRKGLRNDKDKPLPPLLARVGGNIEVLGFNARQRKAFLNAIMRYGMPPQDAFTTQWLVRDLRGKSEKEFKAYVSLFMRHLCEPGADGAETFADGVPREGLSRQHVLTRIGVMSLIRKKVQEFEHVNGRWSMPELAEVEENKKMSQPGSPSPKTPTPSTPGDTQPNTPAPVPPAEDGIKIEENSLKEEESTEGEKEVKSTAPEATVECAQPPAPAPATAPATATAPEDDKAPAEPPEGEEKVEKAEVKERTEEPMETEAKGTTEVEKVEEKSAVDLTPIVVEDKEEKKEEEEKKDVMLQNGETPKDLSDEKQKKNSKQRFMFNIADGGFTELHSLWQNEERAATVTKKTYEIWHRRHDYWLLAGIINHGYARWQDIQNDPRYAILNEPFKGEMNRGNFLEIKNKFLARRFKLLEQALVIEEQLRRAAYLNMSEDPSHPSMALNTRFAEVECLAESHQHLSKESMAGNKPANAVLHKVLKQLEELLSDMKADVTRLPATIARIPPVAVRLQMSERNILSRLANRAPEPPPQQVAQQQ
The experiment is described as above.

Experiment [4] deals with B2. Described as above.
For experiment [5], the target named is CoREST (mouse, UniProt Q8CFE3 1-480). The description is as above.
CoREST, sequence (Q8CFE3 whole entry): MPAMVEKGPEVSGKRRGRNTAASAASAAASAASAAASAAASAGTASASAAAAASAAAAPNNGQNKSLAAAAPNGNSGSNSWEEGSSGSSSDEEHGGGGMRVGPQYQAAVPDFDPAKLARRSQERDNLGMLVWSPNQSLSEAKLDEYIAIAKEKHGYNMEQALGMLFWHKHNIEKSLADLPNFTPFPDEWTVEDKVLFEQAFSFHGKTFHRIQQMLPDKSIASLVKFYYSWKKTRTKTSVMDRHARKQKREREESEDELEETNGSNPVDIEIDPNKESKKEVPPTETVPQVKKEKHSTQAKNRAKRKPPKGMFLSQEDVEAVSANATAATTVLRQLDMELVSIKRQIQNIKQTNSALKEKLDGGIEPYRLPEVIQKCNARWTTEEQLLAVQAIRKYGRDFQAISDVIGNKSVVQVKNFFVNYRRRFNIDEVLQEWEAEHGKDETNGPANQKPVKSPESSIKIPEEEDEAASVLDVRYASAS
In experiment [6] the target is B4. The description is as above.

B1: TR2 (receptor, mouse, UniProt Q505F1 1-590, looked up)
chain: MATIEEIAHQIIDQQMGEIVTEQQTGQKIQIVTALDHSTQGKQFILANHEGSTPGKVFLTTPDAAGVNQLFFTSPDLSAPHLQLLTEKSPDQGPNKVFDLCVVCGDKASGRHYGAITCEGCKGFFKRSIRKNLVYSCRGSKDCVINKHHRNRCQYCRLQRCIAFGMKQDSVQCERKPIEVSREKSSNCAASTEKIYIRKDLRSPLAATPTFVTDSETARSAGLLDSGMFVNIHPSGIKTEPAMLMAPDKAESCQGDLSTLASVVTSLANLGKAKDLSHCGGDMPVVQSLRNGDTSFGAFHHDIQTNGDVSRAFDTLAKALTPGESSACQSPEEGMEGSPHLIAGEPSFVEKEGPLLSESHVAFRLTMPSPMPEYLNVHYIGESASRLLFLSMHWALSIPSFQALGQENSISLVKAYWNELFTLGLAQCWQVMNVATILATFVNCLHSSLQQDKMSPERRKSLMEHIFKLQEFCNSMVKLCIDGHEYAYLKAIVLFSPDHPGLENMELIERFQEKAYVEFQDYITRTYPDDTYRLSRLLLRLPALRLMNATITEELFFKGLIGNVRIDSVIPHILKMEPADYNSQIIGHSL
notes: Endogenous protein, immunoprecipitated or detected with a rabbit polyclonal antibody; also called NR2C1
With B1, the binding result in experiment [1] is reported as “binds”.
Consider B2, for which the binding result in experiment [2] is listed as “no binding”.
Regarding B3, the binding result in experiment [3] is reported as “no binding”.
For the molecule B4, the binding result in experiment [2] is reported as “no binding”.

B5: HDAC3 (enzyme, mouse, UniProt O88895 1-428, looked up)
chain: MAKTVAYFYDPDVGNFHYGAGHPMKPHRLALTHSLVLHYGLYKKMIVFKPYQASQHDMCRFHSEDYIDFLQRVSPTNMQGFTKSLNAFNVGDDCPVFPGLFEFCSRYTGASLQGATQLNNKICDIAINWAGGLHHAKKFEASGFCYVNDIVIGILELLKYHPRVLYIDIDIHHGDGVQEAFYLTDRVMTVSFHKYGNYFFPGTGDMYEVGAESGRYYCLNVPLRDGIDDQSYKHLFQPVISQVVDFYQPTCIVLQCGADSLGCDRLGCFNLSIRGHGECVEYVKSFNIPLLVLGGGGYTVRNVARCWTYETSLLVEEAISEELPYSEYFEYFAPDFTLHPDVSTRIENQNSRQYLDQIRQTIFENLKMLNHAPSVQIHDVPADLLTYDRTDEADAEERGPEENYSRPEAPNEFYDGDHDNDKESDVEI
Consider B5, for which the binding result in experiment [4], in experiment [3], in experiment [5], in experiment [2] and in experiment [6] was “no binding” in each case.
